This experiment has as its target T1, NADPH-cytochrome P450 reductase (human (endogenous in human liver microsomes)) (UniProt P16435).
T1 sequence: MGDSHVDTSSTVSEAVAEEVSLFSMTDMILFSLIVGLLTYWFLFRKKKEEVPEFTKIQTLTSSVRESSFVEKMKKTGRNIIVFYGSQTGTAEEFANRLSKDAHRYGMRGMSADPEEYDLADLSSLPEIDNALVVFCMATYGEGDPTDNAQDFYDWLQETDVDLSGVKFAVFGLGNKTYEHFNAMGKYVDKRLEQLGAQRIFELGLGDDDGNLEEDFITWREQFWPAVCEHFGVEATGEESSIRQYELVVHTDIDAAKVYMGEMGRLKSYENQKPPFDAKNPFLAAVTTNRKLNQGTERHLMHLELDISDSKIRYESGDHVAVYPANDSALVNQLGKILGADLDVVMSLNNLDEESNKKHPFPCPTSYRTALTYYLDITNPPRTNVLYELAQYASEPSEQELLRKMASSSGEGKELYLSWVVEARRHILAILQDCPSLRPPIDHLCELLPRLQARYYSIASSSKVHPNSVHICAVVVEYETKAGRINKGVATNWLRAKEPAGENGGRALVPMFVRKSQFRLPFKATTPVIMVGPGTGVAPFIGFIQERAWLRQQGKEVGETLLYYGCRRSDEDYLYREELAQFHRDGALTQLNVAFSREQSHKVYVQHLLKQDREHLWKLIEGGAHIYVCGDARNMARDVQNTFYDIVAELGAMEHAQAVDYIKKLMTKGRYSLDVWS

Experimental findings from paper PMC8869672 are described below.

Turning to “C-terminally His-tagged and N-terminally truncated Δ3–20 CYP2E1 modified with benzophenone-4-maleimide (BPM) or 4-(N-succinimidylcarboxy)benzophenone (BPS) (from UniProt P05181 1-493) (enzyme)”, the Vmax of 7-EFC deethylation by CYP2E1-BPM incorporated into insect cell microsomes with cDNA-expressed human CPR and cytochrome b5 (SS(CPR+b5)2E1-BPM), normalised per CPR was 0.104 s⁻¹; the Vmax of 7-EFC deethylation by CYP2E1-BPS incorporated into insect cell microsomes with cDNA-expressed human CPR and cytochrome b5 (SS(CPR+b5)2E1-BPS), normalised per CPR came to 1.51 s⁻¹.
